The source of these data is US6287561.

This assay concerns the target gp120 of HIV-1 RF strain (HIV-1 RF strain) (UniProt P04579).

Take LMW-UK (from UniProt P00749): the p24 antigen level in H9 cell supernatants, percent of control is 4 % of control.
